The source of these data is PMC11098083 (Proceedings of the National Academy of Sciences of the …, 2024).

Read-outs that look alike come from different tables or passages of the source.

B2: recombinant Mcm2 (GST tag removed) (natural protein)
chain: MSDNRRRRREEDDSDSENELPPSSPQQHFRGGMNPVSSPIGSPDMINPEGDDNEVDDVPDIDEVEEQMNEVDLMDDNMYEDYAADHNRDRYDPDQVDDREQQELSLSERRRIDAQLNERDRLLRNVAYIDDEDEEQEGAAQLDEMGLPVQRRRRRRQYEDLENSDDDLLSDMDIDPLREELTLESLSNVKANSYSEWITQPNVSRTIARELKSFLLEYTDETGRSVYGARIRTLGEMNSESLEVNYRHLAESKAILALFLAKCPEEMLKIFDLVAMEATELHYPDYARIHSEIHVRISDFPTIYSLRELRESNLSSLVRVTGVVTRRTGVFPQLKYVKFNCLKCGSILGPFFQDSNEEIRISFCTNCKSKGPFRVNGEKTVYRNYQRVTLQEAPGTVPPGRLPRHREVILLADLVDVSKPGEEVEVTGIYKNNYDGNLNAKNGFPVFATIIEANSIKRREGNTANEGEEGLDVFSWTEEEEREFRKISRDRGIIDKIISSMAPSIYGHRDIKTAVACSLFGGVPKNVNGKHSIRGDINVLLLGDPGTAKSQILKYVEKTAHRAVFATGQGASAVGLTASVRKDPITKEWTLEGGALVLADKGVCLIDEFDKMNDQDRTSIHEAMEQQSISISKAGIVTTLQARCSIIAAANPNGGRYNSTLPLAQNVSLTEPILSRFDILCVVRDLVDEEADERLATFVVDSHVRSHPENDEDREGEELKNNGESAIEQGEDEINEQLNARQRRLQRQRKKEEEISPIPQELLMKYIHYARTKIYPKLHQMDMDKVSRVYADLRRESISTGSFPITVRHLESILRIAESFAKMRLSEFVSSYDLDRAIKVVVDSFVDAQKVSVRRQLRRSFAIYTLGH

Assay in all cases: pull-down
Test [1] deals with T1, HIS-tagged N-terminal of yeast Pol1 (1 to 527 AA) (yeast (S. cerevisiae), UniProt P13382 1-527).
T1 sequence (looked up): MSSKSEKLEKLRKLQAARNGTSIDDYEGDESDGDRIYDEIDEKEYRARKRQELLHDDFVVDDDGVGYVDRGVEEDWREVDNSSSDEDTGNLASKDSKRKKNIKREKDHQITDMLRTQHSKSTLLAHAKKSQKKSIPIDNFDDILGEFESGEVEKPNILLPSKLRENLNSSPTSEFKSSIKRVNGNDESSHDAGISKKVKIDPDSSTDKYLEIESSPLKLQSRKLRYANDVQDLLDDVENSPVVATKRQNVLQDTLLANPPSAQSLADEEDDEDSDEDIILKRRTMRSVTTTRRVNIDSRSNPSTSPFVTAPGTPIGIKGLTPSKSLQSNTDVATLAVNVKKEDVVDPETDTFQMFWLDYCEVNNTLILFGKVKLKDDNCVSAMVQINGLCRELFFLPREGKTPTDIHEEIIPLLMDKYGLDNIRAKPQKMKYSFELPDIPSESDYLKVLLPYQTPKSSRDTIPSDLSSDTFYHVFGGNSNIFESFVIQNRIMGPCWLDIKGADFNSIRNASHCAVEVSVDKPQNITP

The target of test [2] is T2, recombinant human histone H3.1–H4 tetramer (human, UniProt P68431 1-136; P62805 1-103).
Test [3] concerns the target B2.
In test [4] the target is T2, recombinant human histone H3.1–H4 …. This is another data set of the same source.

B1: recombinant glutathione S-transferase (GST)-Pol32 (natural protein, yeast (S. cerevisiae), UniProt P47110 1-350, looked up)
chain: MDQKASYFINEKLFTEVKPVLFTDLIHHLKIGPSMAKKLMFDYYKQTTNAKYNCVVICCYKDQTIKIIHDLSNIPQQDSIIDCFIYAFNPMDSFIPYYDIIDQKDCLTIKNSYELKVSESSKIIERTKTLEEKSKPLVRPTARSKTTPEETTGRKSKSKDMGLRSTALLAKMKKDRDDKETSRQNELRKRKEENLQKINKQNPEREAQMKELNNLFVEDDLDTEEVNGGSKPNSPKETDSNDKDKNNDDLEDLLETTAEDSLMDVPKIQQTKPSETEHSKEPKSEEEPSSFIDEDGYIVTKRPATSTPPRKPSPVVKRALSSSKKQETPSSNKRLKKQGTLESFFKRKAK
For the molecule B1, the binding result in test [1], in test [2] and in test [3] was “binds” in each case.
As to B2, the binding result in test [4] is “binds”.
